Data published in patent publication US20220411536A1.

How the values were obtained:
[1] = biological target: unidentified antigen on CHO PD-L1 cells bound by pertuzumab (the filing speculates hamster HER2); assay: flow cytometry, CHO PD-L1 cells; reference pertuzumab
[2] = biological target: unidentified antigen on CHO PD-L1 cells bound by pertuzumab (the filing speculates hamster HER2); assay: flow cytometry, CHO PD-L1 cells (residual binding)

## pertuzumab (antibody)
[1]
  rel. EC50 (EC50 reference/EC50 sample): 1
[2]
  EC50: 1.29 nM
